In PMC3627597:
Where two headings read alike, the source gives them in different places.

T1: BAFF-R (B-cell activating factor receptor) (human, UniProt Q96RJ3 1-76)
T1 sequence: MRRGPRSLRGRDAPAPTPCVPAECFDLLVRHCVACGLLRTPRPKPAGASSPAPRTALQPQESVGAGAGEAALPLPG

B1: R-14 aptamer (structured_RNA)
RNA: GGGAGGACGAUGCGGAUAACUAUUGUGCUAGAGGGCUUAUUUAUGUGAGCCGGUUGAUAGUUGCGCAGACGACUCGCCCGA
modifications: 2'-F U and C
B2: R-1-STAT3 27-mer OVH chimera (structured_RNA)
RNA 1: GGGAGGACGAUGCGGGAGGCUCAACAAUGAUAGAGCCCGCAAUGUUGAUAGUUGUGCCCAGUCUGCAGACGACUCGCCCGAUUUUUUUUGAGAACGGAAGCUGCAGAAAGAUACGA
RNA 2: GUAUCUUUCUGCAGCUUCCGUUCUC
modifications: 2'-F U and C in aptamer-sense strand
B3: R-1-STAT3 27-mer SWAP chimera (structured_RNA)
RNA 1: GGGAGGACGAUGCGGGAGGCUCAACAAUGAUAGAGCCCGCAAUGUUGAUAGUUGUGCCCAGUCUGCAGACGACUGCCCGAUUUUUUUUUCAGUCGUAUCUUUCUGCAGCUUCCGU
RNA 2: GGAAGCUGCAGAAAGAUACGACUGA
modifications: 2'-F U and C in aptamer-antisense strand; S7 3' ga are DNA
B4: R-1 aptamer (structured_RNA)
RNA: GGGAGGACGAUGCGGGAGGCUCAACAAUGAUAGAGCCCGCAAUGUUGAUAGUUGUGCCCAGUCUGCAGACGACUCGCCCGA
modifications: 2'-F U and C
B5: R-22 aptamer (structured_RNA)
RNA: GGGAGGACGAUGCGGAUCCUCCGAAGGUCGCGCCAACGUCACACAUUAAGCUUUUGUUCGUCUGCAGACGACUCGCCCGA
modifications: 2'-F U and C

Columns and labels:
[1] = molecular target: T1, BAFF-R (B-cell activating factor …); test: EMSA
[2] = molecular target: T1, BAFF-R (B-cell activating factor …); test: filter binding
BCMA (TNFRSF17) = BCMA (TNFRSF17) (human, UniProt Q02223 1-54); test: EMSA
[3] = molecular target: T1, BAFF-R (B-cell activating factor …); test: EMSA; remark: listed apart in the source

Chain of BCMA (TNFRSF17) (Q02223 1-54): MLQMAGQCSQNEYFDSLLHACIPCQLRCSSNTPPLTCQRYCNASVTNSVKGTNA

Row | Binder | Kd [1] [nM] | binding signal [2] [% RNA retained] | binding result (BCMA (TNFRSF17)) | Kd [3] [nM]
1 | B1 | ~96 | > 36 |  | 
2 | B2 | 35 |  |  | 
3 | B3 | 56 |  |  | 
4 | B4 | ~47 | > 36 | no binding | 54
5 | B5 |  | 3.6 |  | 
